The test concerns the target UBg_8UBgg (UniProt P0CG47, G76 deletion). The test can be described thus: cryo-EM structure.

B1: Rpn10 (natural protein)
chain: MVLESTMVCVDNSEYMRNGDFLPTRLQAQQDAVNIVCHSKTRSNPENNVGLITLANDCEVLTTLTPDTGRILSKLHTVQPKGKITFCTGIRVAHLALKHRQGKNHKMRIIAFVGSPVEDNEKDLVKLAKRLKKEKVNVDIINFGEEEVNTEKLTAFVNTLNGKDGTGSHLVTVPPGPSLADALISSPILAGEGGAMLGLGASDFEFGVDPSADPELALALRVSMEEQRQRQEEEARRAAAASAAEAGIATTGTEDSDDALLKMTISQQEFGRTGLPDLSSMTEEEQIAYAMQMSLQGAEFGQAESADIDASSAMDTSEPAKEEDDYDVMQDPEFLQSVLENLPGVDPNNEAIRNAMGSLASQATKDGKKDKKEEDKK
Turning to B1, the binding result is given as “binds”.

These data come from article doi:10.1101/2021.10.03.462214 (bioRxiv, 2021).
